Data reported in publication PMC1513511.

B1: 21Pmut (randomized mcb2 oligoduplex) (dsDNA)
DNA 1: AACGAGAGTAGGTCAATATA
DNA 2: TATATTGACCTACTCTCGTT
B2: 21P (mcb2 oligoduplex) (dsDNA)
DNA 1: AACGAAGTGGCTAGAATATA
DNA 2: TATATTCTAGCCACTTCGTT

Columns and labels:
[1] = target: T1, H6MobC221 (pC221 MobC) (plasmid pC221, UniProt Q6V0Y1 1-132); experiment: SPR
T1 sequence: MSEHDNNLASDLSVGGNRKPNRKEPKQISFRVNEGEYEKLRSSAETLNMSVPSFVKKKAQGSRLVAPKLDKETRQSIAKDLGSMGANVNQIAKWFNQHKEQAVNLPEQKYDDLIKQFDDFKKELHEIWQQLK

[2] = target: T1, H6MobC221 (pC221 MobC); experiment: SPR; remark: listed apart in the source

| Binder | binding result [1] | Kd [2] |
| --- | --- | --- |
| B1 | no binding |  |
| B2 |  | ~1800 nM |
